From US20180003631A1 come the findings set out here.

For assay [1], the target named is rNav1.2a/Kv2.1 VSD IV chimera containing the R1629A/L1630A substitutions (rat), P15387. Description: cell-based or functional assay.
The target in assay [2] is T1, rNav1.2a/Kv2.1 VSD IV paddle chimera (WT paddle) (rat), P15387.
T1 chain: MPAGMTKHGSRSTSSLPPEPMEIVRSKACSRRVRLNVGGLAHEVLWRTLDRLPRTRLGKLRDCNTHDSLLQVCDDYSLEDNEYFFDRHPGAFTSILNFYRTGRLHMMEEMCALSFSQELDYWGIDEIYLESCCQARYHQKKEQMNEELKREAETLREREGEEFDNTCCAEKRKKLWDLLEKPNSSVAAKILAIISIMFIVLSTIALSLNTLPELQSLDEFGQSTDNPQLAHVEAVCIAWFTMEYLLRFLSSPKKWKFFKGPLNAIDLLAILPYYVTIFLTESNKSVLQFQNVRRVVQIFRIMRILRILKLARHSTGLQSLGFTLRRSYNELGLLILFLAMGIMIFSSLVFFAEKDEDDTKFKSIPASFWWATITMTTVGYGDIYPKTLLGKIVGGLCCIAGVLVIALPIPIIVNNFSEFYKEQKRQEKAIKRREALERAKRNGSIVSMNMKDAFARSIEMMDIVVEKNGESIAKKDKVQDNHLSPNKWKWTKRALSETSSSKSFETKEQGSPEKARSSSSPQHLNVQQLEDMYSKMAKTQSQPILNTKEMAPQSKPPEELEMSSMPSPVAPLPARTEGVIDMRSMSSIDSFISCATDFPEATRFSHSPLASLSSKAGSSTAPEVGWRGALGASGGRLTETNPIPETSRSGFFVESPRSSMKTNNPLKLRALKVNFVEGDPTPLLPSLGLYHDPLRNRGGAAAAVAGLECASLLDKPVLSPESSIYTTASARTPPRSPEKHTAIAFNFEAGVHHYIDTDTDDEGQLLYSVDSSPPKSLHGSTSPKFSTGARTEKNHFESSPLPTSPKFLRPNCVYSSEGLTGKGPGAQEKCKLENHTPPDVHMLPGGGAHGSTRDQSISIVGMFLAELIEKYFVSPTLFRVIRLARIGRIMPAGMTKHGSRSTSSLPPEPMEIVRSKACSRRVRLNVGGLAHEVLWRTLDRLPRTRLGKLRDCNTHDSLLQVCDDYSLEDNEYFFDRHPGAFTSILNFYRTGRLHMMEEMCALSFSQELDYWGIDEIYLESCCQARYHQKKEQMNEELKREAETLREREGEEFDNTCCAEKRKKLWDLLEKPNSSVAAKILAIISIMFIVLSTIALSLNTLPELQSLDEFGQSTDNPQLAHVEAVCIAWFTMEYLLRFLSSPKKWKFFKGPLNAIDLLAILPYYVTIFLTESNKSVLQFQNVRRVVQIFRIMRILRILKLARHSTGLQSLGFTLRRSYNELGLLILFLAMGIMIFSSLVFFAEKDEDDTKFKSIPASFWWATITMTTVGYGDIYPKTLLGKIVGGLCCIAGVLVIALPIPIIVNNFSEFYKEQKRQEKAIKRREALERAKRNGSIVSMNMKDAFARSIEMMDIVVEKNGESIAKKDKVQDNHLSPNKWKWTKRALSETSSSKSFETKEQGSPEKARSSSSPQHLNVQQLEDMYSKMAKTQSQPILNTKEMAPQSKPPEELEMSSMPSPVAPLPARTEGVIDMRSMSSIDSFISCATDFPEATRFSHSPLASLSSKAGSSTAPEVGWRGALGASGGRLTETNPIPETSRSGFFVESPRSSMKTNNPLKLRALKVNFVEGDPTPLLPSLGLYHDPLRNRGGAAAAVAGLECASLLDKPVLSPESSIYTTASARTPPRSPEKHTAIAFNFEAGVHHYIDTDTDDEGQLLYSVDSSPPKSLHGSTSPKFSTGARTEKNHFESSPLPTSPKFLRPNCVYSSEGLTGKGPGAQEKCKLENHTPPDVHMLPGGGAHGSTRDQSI
Description: cell-based or functional assay.

The target of assay [3] is T2, isolated rNav1.2a VSD IV paddle peptide with R1629A/L1630A substitutions and C-terminal K-linked biotin (rat). Description: site 1 of heterogeneous ligand model (ka1).
Assay [4] concerns the target T2, isolated rNav1.2a VSD IV paddle peptide …. Nature of the assay: site 1 of heterogeneous ligand model (kd1).
Assay [5] has the same target. Nature of the assay: site 2 of heterogeneous ligand model (ka2).
Assay [6] shares this target. Description: site 2 of heterogeneous ligand model (kd2).
The target is the same in assay [7]. Description: SPR (Biacore T200), heterogeneous ligand model, site 1. (In general: In SPR one partner is held on a chip, and binding of the other changes the refractive index at the surface.)
For assay [8] the target is unchanged. Description: SPR (Biacore T200), heterogeneous ligand model, site 2.
Assay [9] shares this target. Description: SPR (Biacore T200), heterogeneous ligand model, site 1, n=3, mean±SD; site 1, high affinity KD1, n=3.
Assay [10] has the same target. Nature of the assay: SPR (Biacore T200), heterogeneous ligand model, site 2, n=3, mean±SD; site 2, lower affinity KD2, n=3.

B1: AaHII from Androctonus australis hector, P01484 20-83 (peptide)
chain: VKDGYIVDDVNCTYFCGRNAYCNEECTKLKGESGYCQWASPYGNACYCYKLPDHVRTKGPGRCH
modifications: not checked
In the case of B1, the apparent KD (from K+ current inhibition, two-electrode voltage clamp, Xenopus oocytes) in [1] is 193 nM; in assay [2], 1010 nM. Also, the kon (as a rule, the rate constant with which the complex forms) in assay [3] worked out at 2330 M⁻¹ s⁻¹; in [5], 38200 M⁻¹ s⁻¹. The koff (as a rule, a measure of how fast the partners let go of each other) in assay [4] worked out at 0.000979 s⁻¹; in assay [6], 0.0281 s⁻¹. The RUmax1 in assay [7] is 135 RU. This molecule displayed an RUmax2 in [8] of 23 RU. Further, the Kd (commonly the free concentration of one partner at which half of the binding sites on the other are occupied at equilibrium, for simple one-to-one binding) was 479 nM in assay [9] and 747 nM in assay [10].
